The test has as its target Recombinant human Tipin-His6 (human) (UniProt Q9BVW5). Briefly: SPR.

pKd: −log10 of the molar value.

Chain of UniProt Q9BVW5 (Q9BVW5 whole entry): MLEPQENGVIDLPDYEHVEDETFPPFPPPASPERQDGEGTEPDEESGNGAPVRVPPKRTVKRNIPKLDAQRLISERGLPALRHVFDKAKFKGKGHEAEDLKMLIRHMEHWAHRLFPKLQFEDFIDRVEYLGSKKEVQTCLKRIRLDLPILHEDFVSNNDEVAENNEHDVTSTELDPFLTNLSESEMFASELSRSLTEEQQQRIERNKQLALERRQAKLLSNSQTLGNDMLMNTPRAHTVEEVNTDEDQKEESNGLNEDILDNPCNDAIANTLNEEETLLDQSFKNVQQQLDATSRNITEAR

Turning to “Recombinant human DDX11-3xFLAG (from UniProt Q96FC9 1-970) (enzyme)”, the pKd is 6.18.
